Laboratory results as given in patent EP4786489A1, “IL-22 MUTANT, PREPARATION METHOD THEREFOR, AND USE THEREOF” (Nanjing Novoacine Biotechnology Co., Ltd., priority 2023, dated 2025).
Numbering of substitutions follows the chain as printed.

T1: heterodimeric receptor complex (IL-22Rα/IL-10Rβ) (human, UniProt Q8N6P7 16-574; Q08334 20-325)
T1 sequence (looked up) 1: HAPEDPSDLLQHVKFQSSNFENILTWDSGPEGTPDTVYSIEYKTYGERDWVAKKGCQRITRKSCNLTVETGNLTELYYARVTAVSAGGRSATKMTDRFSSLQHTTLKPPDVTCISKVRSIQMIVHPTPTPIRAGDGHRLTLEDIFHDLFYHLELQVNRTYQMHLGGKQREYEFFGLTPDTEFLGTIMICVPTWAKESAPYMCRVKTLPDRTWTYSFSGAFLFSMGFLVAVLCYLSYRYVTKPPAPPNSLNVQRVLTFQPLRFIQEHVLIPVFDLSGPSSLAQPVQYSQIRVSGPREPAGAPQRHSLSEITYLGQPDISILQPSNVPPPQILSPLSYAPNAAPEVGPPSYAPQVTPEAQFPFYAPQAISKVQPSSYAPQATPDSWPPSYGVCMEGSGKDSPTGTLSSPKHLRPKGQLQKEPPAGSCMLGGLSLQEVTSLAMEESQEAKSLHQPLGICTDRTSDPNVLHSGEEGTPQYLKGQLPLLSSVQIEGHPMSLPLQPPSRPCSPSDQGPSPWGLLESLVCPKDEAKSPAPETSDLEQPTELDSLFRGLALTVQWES
T1 sequence (looked up) 2: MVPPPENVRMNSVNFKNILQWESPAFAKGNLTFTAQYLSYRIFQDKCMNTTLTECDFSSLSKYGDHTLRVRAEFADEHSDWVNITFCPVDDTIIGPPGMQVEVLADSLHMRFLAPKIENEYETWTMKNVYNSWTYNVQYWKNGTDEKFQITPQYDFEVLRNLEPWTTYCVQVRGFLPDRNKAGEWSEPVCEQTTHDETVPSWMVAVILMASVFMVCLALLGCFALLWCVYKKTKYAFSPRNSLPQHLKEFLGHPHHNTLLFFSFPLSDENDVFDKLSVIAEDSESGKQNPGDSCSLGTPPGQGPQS

B1: hB3-his (ligand)
chain: APISSHCRLDKENFQQPYITNRTFMLAKEASLADNNTDVRLIGEKLFHGVSMSERCYLMKQVLNFTLEEVLFPQSDRFQPYMAEVVPFLAALSNALSTCHIEGDDLHIQRNVQKLKDTVKKLGESGEIKAIGELDLLFMSLRNACIHHHHHH
B2: wt IL-22 (ligand)
chain: APISSHCRLDKSNFQQPYITNRTFMLAKEASLADNNTDVRLIGEKLFHGVSMSERCYLMKQVLNFTLEEVLFPQSDRFQPYMQEVVPFLARLSNRLSTCHIEGDDLHIQRNVQKLKDTVKKLGESGEIKAIGELDLLFMSLRNACI
B3: 80K-PEG-IL22-P50C (ligand)
chain: B2 chain with P17C
modifications: Cys at position 17 (SEQ ID NO:1 numbering) conjugated to 80 kDa PEG-maleimide (thioether linkage)
B4: 40K-PEG-IL22-P120C (ligand)
chain: B2 chain with P87C
modifications: Cys at position 87 (SEQ ID NO:1 numbering) conjugated to 40 kDa PEG-maleimide (thioether linkage)
B5: 40K-PEG-IL22-D109C (ligand)
chain: B2 chain with D76C
modifications: Cys at position 76 (SEQ ID NO:1 numbering) conjugated to 40 kDa PEG-maleimide (thioether linkage)
B6: 60K-PEG-IL22-P120C (ligand)
chain: B2 chain with P87C
modifications: Cys at position 87 (SEQ ID NO:1 numbering) conjugated to 60 kDa PEG-maleimide (thioether linkage)
B7: 40K-PEG-IL22-P50C (ligand)
chain: B2 chain with P17C
modifications: Cys at position 17 (SEQ ID NO:1 numbering) conjugated to 40 kDa PEG-maleimide (thioether linkage)
B8: 80K-PEG-IL22-P120C (ligand)
chain: B2 chain with P87C
modifications: Cys at position 87 (SEQ ID NO:1 numbering) conjugated to 80 kDa PEG-maleimide (thioether linkage)
B9: 60K-PEG-IL22-P50C (ligand)
chain: B2 chain with P17C
modifications: Cys at position 17 (SEQ ID NO:1 numbering) conjugated to 60 kDa PEG-maleimide (thioether linkage)
B10: 80K-PEG-IL22-D109C (ligand)
chain: B2 chain with D76C
modifications: Cys at position 76 (SEQ ID NO:1 numbering) conjugated to 80 kDa PEG-maleimide (thioether linkage)
B11: 60K-PEG-IL22-D109C (ligand)
chain: B2 chain with D76C
modifications: Cys at position 76 (SEQ ID NO:1 numbering) conjugated to 60 kDa PEG-maleimide (thioether linkage)

Assays:
Assay in all cases: cell-based or functional assay
[1] = molecular target: heterodimeric receptor complex (IL-22Rα/IL-10Rβ) (human) (UniProt Q8N6P7)
[2] = molecular target: T1, heterodimeric receptor complex …
[3] = molecular target: T1, heterodimeric receptor complex …; remark: listed apart in the source
[4] = molecular target: T1, heterodimeric receptor complex …; remark: listed apart in the source
[5] = molecular target: T1, heterodimeric receptor complex …; remark: listed apart in the source
[6] = molecular target: T1, heterodimeric receptor complex …; remark: listed apart in the source

Row | STAT1/STAT3 EC50 ratio (higher is better); FACS, HT29 cells [2] | STAT1 Activation EC50 (nM); pSTAT1 FACS, HT29 cells [2] [nM] | STAT3 Activation EC50 (nM); pSTAT3 FACS, HT29 cells [2] [nM] | also measured | Molecule
1 |  |  |  | EC50 for STAT1 Activation (nM); pSTAT1 FACS, HT-29 cells [1]: 49.9 nM; EC50 for STAT3 Activation (nM); pSTAT3 FACS, HT-29 cells [1]: 12.9 nM; HaCaT: HT29 ratio (higher is better); p-STAT3 EC50, FACS [1]: 5.8; STAT1/STAT3 EC50 ratio (higher is better); FACS, HT29 cells [1]: 3.2; STAT1/STAT3 EC50 ratio (higher is better); FACS, HT-29 cells [1]: 3.9; STAT1 Activation EC50 (nM); pSTAT1 FACS, HT29 cells [1]: 12.6 nM; STAT3 Activation EC50 (nM); pSTAT3 FACS, HT29 cells [1]: 3.9 nM; p-STAT3 EC50 (nM), HaCaT; FACS [1]: 22.7 nM | IL-22-Fc (Fc fusion)
2 | 9.3 | 23 | 2.47 | EC50 for STAT1 Activation (nM); pSTAT1 FACS, HT-29 cells [3]: 279 nM; EC50 for STAT3 Activation (nM); pSTAT3 FACS, HT-29 cells [3]: 4.13 nM; STAT1/STAT3 EC50 ratio (higher is better); FACS, HT-29 cells [3]: 67.5; STAT1/STAT3 Ratio (higher is better); ELISA, COLO205 cells [4]: 2.34; STAT1 Activation EC50 (nM); p-STAT1 ELISA, COLO205 cells [4]: 17.4 nM; STAT1 Activation, Fold change relative to wt IL-22; p-STAT1 ELISA, COLO205 cells [4]: 18.5 fold; STAT3 Activation EC50 (nM); p-STAT3 ELISA, COLO205 cells [4]: 0.525 nM; STAT3 Activation, Fold change relative to wt IL-22; p-STAT3 ELISA, COLO205 cells [4]: 7.92 fold | B1
3 |  |  |  | STAT1/STAT3 Ratio (higher is better); ELISA, COLO205 cells [4]: 1; STAT1 Activation EC50 (nM); p-STAT1 ELISA, COLO205 cells [4]: 0.939 nM; STAT1 Activation, Fold change relative to wt IL-22; p-STAT1 ELISA, COLO205 cells [4]: 1 fold; STAT3 Activation EC50 (nM); p-STAT3 ELISA, COLO205 cells [4]: 0.0663 nM; STAT3 Activation, Fold change relative to wt IL-22; p-STAT3 ELISA, COLO205 cells [4]: 1 fold; EC50 fold change of the test candidate relative to wt IL-22; STAT3 reporter gene assay, COLO205/SIE cells (Assay1) [5]: 1 fold; EC50 fold change of the test candidate relative to wt IL-22; STAT3 reporter gene assay, COLO205/SIE cells (Assay2) [5]: 1 fold; EC50 for STAT3 Activation (nM); STAT3 reporter gene assay, COLO205/SIE cells (Assay1) [5]: 0.00529 nM; EC50 for STAT3 Activation (nM); STAT3 reporter gene assay, COLO205/SIE cells (Assay2) [5]: 0.00303 nM | B2
4 | 3.3 | 62.3 | 18.9 |  | B3
5 | 9.1 | 55.3 | 6.05 |  | B4
6 | 31.3 | 10.9 | 0.348 |  | B5
7 | 7.6 | 86.2 | 11.4 | HaCaT: HT29 ratio (higher is better); p-STAT3 EC50, FACS [6]: 37.7; p-STAT3 EC50 (nM), HaCaT; FACS [6]: 428 nM | B6
8 | 7.8 | 369 | 47.5 |  | B7
9 | 29 | 574 | 19.8 |  | B8
10 | 2.4 | 134 | 55.5 |  | B9
11 | 7.1 | 7 | 0.984 |  | B10
12 | 16.3 | 9.41 | 0.577 | HaCaT: HT29 ratio (higher is better); p-STAT3 EC50, FACS [6]: 12.9; p-STAT3 EC50 (nM), HaCaT; FACS [6]: 7.44 nM | B11
